Experimental data as given in paper PMC8151509.
Where a chain is given by its changes, count along the chain named. In names and notes the source's numbering stands. Each block holds one binder with its values, some of them ahead of it.

Key:
[1] = target: C1qCLR_nc2 (wild type, devoid of the additional GPP triplets), P02745;P02747; assay: SPR; conditions: chain shown with the change; immobilized C1qCLR_nc2; parent: est. 100; read off a plot
[2] = target: C1qstem_nc2, P02745;P02746; assay: SPR; conditions: chain shown with the change; immobilized C1qstem_nc2; parent: est. 100; read off a plot
C1qstem_nc2, P02745;P02746, sequence (chain, as listed by the source, chain 1 of 3): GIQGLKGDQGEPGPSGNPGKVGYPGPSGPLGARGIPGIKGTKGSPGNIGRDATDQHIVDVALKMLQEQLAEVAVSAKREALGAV
C1qstem_nc2, P02745;P02746, sequence (chain, as listed by the source, chain 2 of 3): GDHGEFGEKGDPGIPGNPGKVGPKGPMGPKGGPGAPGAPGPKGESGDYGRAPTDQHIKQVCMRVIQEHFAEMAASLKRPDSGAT
C1qstem_nc2, P02745;P02746, sequence (chain, as listed by the source, chain 3 of 3): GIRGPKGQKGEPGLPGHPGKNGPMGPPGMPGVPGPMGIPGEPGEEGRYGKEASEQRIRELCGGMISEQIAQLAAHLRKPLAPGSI

[3] = target: C1qCLR_nc2 (wild type, devoid of the additional GPP triplets) (UniProt P02745); assay: SPR; LAIR-1 Ig-like domain injected at increasing concentrations (4-128, 4-256 or 3.125-400 µM) over immobilized C1q, rC1q variants, C1qCLR_nc2 variants or C1qstem_nc2 (CM5, amine coupling); 25 °C; 50 mM Tris, 150 mM NaCl, 2 mM CaCl2, 0.05% surfactant P20, pH 7.5; KD from Req versus concentration, steady-state model
C1qCLR_nc2 A_R72E = C1qCLR_nc2 A_R72E (UniProt P02745); assay: as above
C1qCLR_nc2 B_K65E = C1qCLR_nc2 B_K65E (UniProt P02745); assay: as above
C1qstem_nc2 = C1qstem_nc2 (UniProt P02745); assay: as above

C1qCLR_nc2 (wild type, devoid of the additional GPP triplets), P02745;P02747, sequence (chain, as listed by the source, chain 1 of 3): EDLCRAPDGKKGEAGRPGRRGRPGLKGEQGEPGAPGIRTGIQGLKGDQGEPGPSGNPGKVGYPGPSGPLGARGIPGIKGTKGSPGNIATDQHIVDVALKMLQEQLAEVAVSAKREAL
C1qCLR_nc2 (wild type, devoid of the additional GPP triplets), P02745;P02747, sequence (chain, as listed by the source, chain 2 of 3): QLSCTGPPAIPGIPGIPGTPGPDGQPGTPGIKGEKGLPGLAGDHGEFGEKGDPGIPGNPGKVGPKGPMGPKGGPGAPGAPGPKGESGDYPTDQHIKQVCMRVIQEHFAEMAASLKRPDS
C1qCLR_nc2 (wild type, devoid of the additional GPP triplets), P02745;P02747, sequence (chain, as listed by the source, chain 3 of 3): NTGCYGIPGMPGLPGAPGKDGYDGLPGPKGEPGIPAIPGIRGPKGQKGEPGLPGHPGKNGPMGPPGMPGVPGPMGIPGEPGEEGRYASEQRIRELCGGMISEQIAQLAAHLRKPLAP

B1: LAIR-1 Ig-like domain, wild type, Q6GTX8 P107R (protein)
chain: QEEDLPRPSISAEPGTVIPLGSHVTFVCRGPVGVQTFRLERDSRSTYNDTEDVSQASPSESEARFRIDSVREGNAGLYRCIYYKPRKWSEQSDYLELLVKE
percent of parent (% of LAIR-1 WT binding) [1]: 60
percent of parent (% of LAIR-1 WT binding) [2]: 69

B2: LAIR-1 Ig-like domain, wild type, Q6GTX8 E61A (protein)
chain: B1 chain with E40A, R86P
percent of parent (% of LAIR-1 WT binding) [1]: 11
percent of parent (% of LAIR-1 WT binding) [2]: 6

B4: LAIR-1 Ig-like domain, wild type, Q6GTX8 I102L (protein)
chain: B1 chain with I81L, R86P
percent of parent (% of LAIR-1 WT binding) [1]: 21
percent of parent (% of LAIR-1 WT binding) [2]: 20

Second part, the binder after the results:

percent of parent (% of LAIR-1 WT binding) [1]: 21
percent of parent (% of LAIR-1 WT binding) [2]: 21
B3: LAIR-1 Ig-like domain, wild type, Q6GTX8 E72K (protein)
chain: B1 chain with E51K, R86P

percent of parent (% of LAIR-1 WT binding) [1]: 36
percent of parent (% of LAIR-1 WT binding) [2]: 34
B5: LAIR-1 Ig-like domain, wild type, Q6GTX8 E111K (protein)
chain: B1 chain with R86P, E90K

Kd [3]: 179 µM
Kd (C1qCLR_nc2 A_R72E): 295 µM
Kd (C1qCLR_nc2 B_K65E): 189 µM
Kd (C1qstem_nc2): 175 µM
B6: LAIR-1 Ig-like domain, wild type (domain or fragment)
chain: B1 chain with R86P
